# Reference: patent US20200179497
# Residue numbers refer to the chain shown, from its start.
# B1: pCART203 (protein)
# chain: MDDYQRNATEAYAKEVPHQITSVWTKGVTPPEQFTQGEDVIHAPYLAHQGWYDITKAFDGKDNLLCGAATAGNMLHWWFDQNKTEIEAYLSKHPEKQKIIFNNQELFDLKAAIDTKDSQTNSQLFNYFRDKAFPNLSARQLGVMPDLVLDMFINGYYLNVFKTQSTDVNRPYQDKDKRGGIFDAVFTRGDQTTLLTARHDLKNKGLNDISTIIKQELTEGRALALSHTYANVSISHVINLWGADFNAEGNLEAIYVTDSDANASIGMKKYFVGINAHGHVAISAKKIEGENIGAQVLGLFTLSSGKDIWQKLSGGGHHHHHH
# B2: pCART208 (protein)
# chain: B1 chain with F101I, N102R
# B3: BX1001865 (IdeS lacking tag, produced to GMP standard) (protein)
# chain: DSFSANQEIRYSEVTPYHVTSVWTKGVTPPANFTQGEDVFHAPYVANQGWYDITKTFNGKDDLLCGAATAGNMLHWWFDQNKDQIKRYLEEHPEKQKINFNGEQMFDVKEAIDTKNHQLDSKLFEYFKEKAFPYLSTKHLGVFPDHVIDMFINGYRLSLTNHGPTPVKEGSKDPRGGIFDAVFTRGDQSKLLTSRHDFKEKNLKEISDLIKKELTEGKALGLSHTYANVRINHVINLWGADFDSNGNLKAIYVTDSDSNASIGMKKYFVGVNSAGKVAISAKEIKEDNIGAQVLGLFTLSTGQDSWNQTN
# B4: pCART124 (IdeS with additional N terminal methionine and histidine tag) (protein)
# chain: MDSFSANQEIRYSEVTPYHVTSVWTKGVTPPANFTQGEDVFHAPYVANQGWYDITKTFNGKDDLLCGAATAGNMLHWWFDQNKDQIKRYLEEHPEKQKINFNGEQMFDVKEAIDTKNHQLDSKLFEYFKEKAFPYLSTKHLGVFPDHVIDMFINGYRLSLTNHGPTPVKEGSKDPRGGIFDAVFTRGDQSKLLTSRHDFKEKNLKEISDLIKKELTEGKALGLSHTYANVRINHVINLWGADFDSNGNLKAIYVTDSDSNASIGMKKYFVGVNSAGKVAISAKEIKEDNIGAQVLGLFTLSTGQDSWNQTNGGGHHHHHH
# Biological target: IVIg (Octagam)
protein,measurement,value
B1,"cleavage efficacy on SDS-PAGE, fold vs IdeS",a 2 fold increased efficacy compared to IdeS
same,enzyme concentration at which IgG cleavage is seen on SDS-PAGE,demonstrates IgG cleavage at 0.5 ng/ml (lane 7)
B2,"cleavage efficacy of the 1st heavy chain on SDS-PAGE, fold vs IdeS",approximately a 4 fold increase in cleavage efficacy of the 1st heavy chain
B3,enzyme concentration at which cleavage starts on SDS-PAGE,"IdeS, which starts the cleavage at 0.9 ng/ml (lane 6) and has a dominating scIgG band at 1.9 ng/ml (lane 5)"
B4,enzyme concentration at which cleavage starts on SDS-PAGE,"IdeS, which starts the cleavage at 0.9 ng/ml (lane 6) and has a dominating scIgG band at 1.9 ng/ml (lane 5)"
